Results on two molecules are retold here after paper PMC11464180 (Immunity, 2024).

Test [1] has as its target H1N1 A/Solomon Island/3/2006 HA (Influenza A virus A/Solomon …, UniProt A7Y8I1, strain). In words: BLI.
The target in test [2] is T1, H1 mini-HA (#4900) (Designed from influenza A virus …, stabilised). The experiment in a line: BLI. Background: Biolayer interferometry detects binding as a change in optical thickness at a sensor tip.
Test [3] deals with T1, H1 mini-HA (#4900). The experiment in a line: ELISA. On the technique in general: An ELISA detects its analyte on a solid surface through an enzyme-linked reagent.

B1: 310–18A5 (antibody, V domains shown)
VH: QVQLMQSGTEVKKPGSSVRVSCKASGSTFNSDAISWVRQAPGQGLEWMGGILGMFRTVNYAQRFQGRVTITADELMSTAYMELSGLRFEDTAVYYCARGDGYKPNFLRYWGQGTLITVSS
VL: TLSLSPGERATLSCRASQSVSSTSLAWYQQKFGQAPRLLIYGASNRATGIPDRFSGSGSGTDFTLTISRLEPEDFAVYYCQQYGNSLTFGGGTKVEIK
As for B1, the Kd came out at 0.2 nM in test [1] and 1 nM with H1 mini-HA (#4900) [2].

B2: 013–10 3F02 IgG K56N mutant (antibody, V domains shown)
VH: QVQLVESGGGVAQPGRSLRLSCAASGFTFSTYGMHWVRQAPGKGLEWVAVISYDGSNRYYAEILKDRFTISRDNSKNTVYLQMNSLRTEDTAVYFCAKEGRPLIVSGTHFFQFYYGMDVWGQGTTVTVSS
VL: DIQMTQSPSSLSASVGDRVTISCRASQSIGTYLNWYQQKPGKAPNLLIYGTSTLKSGVPSRFSGSGSGTDFTLTIGSLQPEDFATYFCQQSFSPPLTFGRGTRLEIK
As for B2, the “fold weakening of binding affinity against WT” value with H1 mini-HA (#4900) [3] came to 10 fold.

As a reminder, the Kd is the constant that tells how readily two partners part at equilibrium. Read a low Kd as higher affinity.
